# Experimental data reported in patent US5580958, “Polypeptides encoding transcriptional activators and uses thereof” (La Jolla Cancer Research Foundation).
# Target: PU.1 beta-galactosidase fusion (lambda 25.1, Ly25.1) (Mus musculus, UniProt P17433 P17433:1-272)
# Assay: Southwestern blot with multimerized 33-mer; methylation interference protects three G in GAGGAA; lower affinity than PU-1
# Conditions: tags: beta-galactosidase fusion, partially purified on anti-beta-gal Sepharose; label: 32P
# Experimental: Production of beta-Galactosidase Fusion Protein and Western and Southwestern Analyses Lysogens were prepared from the lambda 25.1 and lambda 24.1 clones as described (Sturm et al., 1988) and the fusion proteins partially purified using anti-beta-galactosidase antibody bound to Sepharose (5 Prime - 3 Prime, Inc., Paoli, Pa.), as described by the manufacturer. Western and Southwestern analyses were carried out as described (Staudt et al., 1988).
# Bacterial extracts prepared from lambda-gt11 and lambda 25.1 lysogens were fractionated on a 7.5% SDS-polyacrylamide gel, transferred to nitrocellulose and probed with labeled multimerized 33-mer. Only the lane with the lambda 25.1 extract contained a protein able to bind the probe. […] The positive filter was subsequently treated with rabbit antiserum to beta-galactosidase and mouse anti-rabbit immunoglobulin horseradish peroxidase conjugate. […] The appearance of several bands of lower molecular size are probably the result of degradation of the 150 kDa species. […] Some breakdown of the beta-galactosidase occurred in this sample resulting in a band at about 69 kDa.
binder,measurement,value
MHC class II I-A beta 33-mer (tetramer probe) (dsDNA) DNA 1: GATCCGTCCCAAGTGAGGAACCAATCAGCATTG DNA 2: CAATGCTGATTGGTTCCTCACTTGGGACGGATC,binding result,binds
